Target: the molecule itself
Test: cryo-EM structure

B1: Thermophilic Factor 55 β subunit (TF55β) chaperonin complex from Sulfolobus solfataricus (natural protein, S. solfataricus, UniProt Q9V2T8 1-554, looked up)
chain: MATATVATTPEGIPVIILKEGSSRTYGKEALRANIAAVKAIEEALKSTYGPRGMDKMLVDSLGDITITNDGATILDKMDLQHPTGKLLVQIAKGQDEETADGTKTAVILAGELAKKAEDLLYKEIHPTIIVSGYKKAEEIALKTIQEIAQPVTINDTDVLRKVALTSLGSKAVAGAREYLADLVVKAVAQVAELRGDKWYVDLDNVQIVKKHGGSVNDTQLVYGIVVDKEVVHPGMPKRIENAKIALLDASLEVEKPELDAEIRINDPTQMHKFLEEEENILKEKVDKIAATGANVVICQKGIDEVAQHYLAKKGILAVRRAKKSDLEKLARATGGRVISNIDELTSQDLGYAALVEERKVGEDKMVFVEGAKNPKSVSILIRGGLERVVDETERALRDALGTVADVIRDGRAVAGGGAVEIEIAKRLRKYAPQVGGKEQLAIEAYANAIEGLIMILAENAGLDPIDKLMQLRSLHENETNKWYGLNLFTGNPEDMWKLGVIEPALVKMNAVKAATEAVTLVLRIDDIVAAGKKSGSEPSGKKEKDKEEKSSED
- stoichiometry N: 18
